How the values were obtained:
[1] = biological target: phosphorylated PorXFj (PorXFj incubated with acetyl phosphate and MgCl2) (Flavobacterium johnsoniae) (UniProt A5FFU4); assay: SEC-MALS; PorXFj 1.6 mg/mL incubated 1 h at RT with 20 mM AcP + 10 mM MgCl2; Superdex 200 Increase 10/300 GL in PBS
[2] = biological target: PorXFj (Fjoh_2906), the Flavobacterium johnsoniae PorX homolog, purified, not phosphorylated (Flavobacterium johnsoniae) (UniProt A5FFU4); assay: SEC-MALS; PorXFj 1.6 mg/mL incubated 1 h at RT with 100 uM ZnCl2; column equilibrated in PBS only
[3] = biological target: PorXFj (Fjoh_2906), the Flavobacterium johnsoniae PorX homolog, purified, not phosphorylated (Flavobacterium johnsoniae) (UniProt A5FFU4); assay: SEC; PorXFj 1.6 mg/mL incubated 1 h at RT with 100 uM CuCl2; Superdex 200 Increase 10/300 GL in PBS with 100 uM CuCl2
[4] = biological target: PorXFj (Fjoh_2906), the Flavobacterium johnsoniae PorX homolog, purified, not phosphorylated (Flavobacterium johnsoniae) (UniProt A5FFU4); assay: SEC; PorXFj 1.6 mg/mL incubated 1 h at RT with 100 uM MnCl2; Superdex 200 Increase 10/300 GL in PBS with 100 uM MnCl2
[5] = biological target: PorXFj (Fjoh_2906), the Flavobacterium johnsoniae PorX homolog, purified, not phosphorylated (Flavobacterium johnsoniae) (UniProt A5FFU4); assay: SEC; PorXFj 1.6 mg/mL incubated 1 h at RT with 100 uM ZnCl2; Superdex 200 Increase 10/300 GL in PBS with 100 uM ZnCl2

| Substance | stoichiometry N [1] | stoichiometry N [2] | stoichiometry N [3] | stoichiometry N [4] | stoichiometry N [5] |
| --- | --- | --- | --- | --- | --- |
| phosphorylated PorXFj (PorXFj incubated with acetyl phosphate and MgCl2) (from UniProt A5FFU4 1-517) (natural protein) | 2 | – | – | – | – |
| PorXFj (Fjoh_2906), the Flavobacterium johnsoniae PorX homolog, purified, not phosphorylated (from UniProt A5FFU4 1-517) (natural protein) | – | 2 | 2 | 2 | 2 |
